In publication PMC13648279:

Assays:
[1] = biological target: MbTEC^PH (R28E) (Monosiga brevicollis MX1); assay: FP; conditions: domain or fragment
[2] = biological target: MbTEC^PH (PH domain of Monosiga brevicollis TEC, residues 1-174), labelled with Atto488 (Monosiga brevicollis MX1); assay: fluorescence polarisation; fluorescence anisotropy; MbTEC^32K constructs serially diluted into 200 nM Atto488-labelled PH domain; 20 mM HEPES pH 7.4, 150 mM NaCl, 2% glycerol, 1 mM TCEP; 21 °C; one-site binding model
[3] = biological target: MbTEC^PH (R28E) (Monosiga brevicollis MX1); assay: as above
[4] = biological target: MbTEC^PH (PH domain of Monosiga brevicollis TEC, residues 1-174), labelled with Atto488; assay: fluorescence anisotropy; conditions: parent: 4.0 ± 1.3 µM

Substance: MbTEC^32K (SH3-SH2-kinase module of Monosiga brevicollis TEC, residues 229-667)
- Kd [1]: 22.4 µM

Substance: MbTEC^32K (SH3-SH2-kinase module of Monosiga brevicollis TEC, residues 229-667) (domain or fragment)
- Kd [2]: 4 µM
- fold weakening of binding against wild-type MbTEC^PH [3]: 5 fold

Substance: MbTEC^32K (SH3-SH2-kinase module of Monosiga brevicollis TEC, residues 229-667) Y579D; R581E
- Kd [4]: 195 µM
